In PMC11681868 one finds Kd and dH data, which are given here for one molecule.

Common to all, as to experiment: ITC; iTC200; 5 μM scFv in the cell, 50 μM peptide in the syringe; samples dialyzed against PBS; triplicate
Test [1] addresses rabbit antibody C7 scFv H-S54A (rabbit).
For test [2], the target named is rabbit antibody A4 scFv (wild type) (rabbit).
Test [3] concerns the target rabbit antibody C7 scFv H-S52A (rabbit).
Test [4] deals with rabbit antibody A4 scFv H-S53A (rabbit).
The target in test [5] is rabbit antibody A4 scFv H-S54A (rabbit).
Sequence of rabbit antibody A4 scFv H-S54A (rabbit) (heavy, as listed by the source, chain 1 of 2): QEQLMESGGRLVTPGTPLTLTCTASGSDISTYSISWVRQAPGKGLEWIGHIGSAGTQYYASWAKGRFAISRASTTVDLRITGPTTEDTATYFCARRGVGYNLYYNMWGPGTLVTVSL
Sequence of rabbit antibody A4 scFv H-S54A (rabbit) (light, as listed by the source, chain 2 of 2): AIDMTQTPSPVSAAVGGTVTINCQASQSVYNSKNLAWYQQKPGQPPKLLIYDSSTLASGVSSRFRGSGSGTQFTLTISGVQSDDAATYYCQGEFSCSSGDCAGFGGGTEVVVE
Test [6] concerns the target rabbit antibody A4 scFv H-T56A (rabbit).
The target in test [7] is rabbit antibody C7 scFv (wild type) (rabbit).
Sequence of rabbit antibody C7 scFv (wild type) (rabbit) (heavy, as listed by the source, chain 1 of 2): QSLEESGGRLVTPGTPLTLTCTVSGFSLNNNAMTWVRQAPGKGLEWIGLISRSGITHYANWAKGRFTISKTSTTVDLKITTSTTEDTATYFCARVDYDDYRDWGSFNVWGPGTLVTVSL
Sequence of rabbit antibody C7 scFv (wild type) (rabbit) (light, as listed by the source, chain 2 of 2): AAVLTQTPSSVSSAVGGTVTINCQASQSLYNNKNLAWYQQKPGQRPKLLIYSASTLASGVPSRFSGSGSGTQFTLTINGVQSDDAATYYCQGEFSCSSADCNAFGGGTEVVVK

Where no end group is shown, it is not given here. [ ]: non-standard residue; d: D form. pS = N[C@@H](COP(=O)(O)O)C(=O)O

Sequence of rabbit antibody A4 scFv H-T56A (rabbit) (heavy, as listed by the source, chain 1 of 2): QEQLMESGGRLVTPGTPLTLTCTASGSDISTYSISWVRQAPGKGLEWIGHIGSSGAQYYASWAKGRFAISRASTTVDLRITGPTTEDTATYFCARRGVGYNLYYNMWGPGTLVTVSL
Sequence of rabbit antibody A4 scFv (wild type) (rabbit) (heavy, as listed by the source, chain 1 of 2): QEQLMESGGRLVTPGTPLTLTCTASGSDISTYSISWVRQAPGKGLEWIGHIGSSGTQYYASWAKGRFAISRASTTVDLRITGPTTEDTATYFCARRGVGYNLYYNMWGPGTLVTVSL
Sequence of rabbit antibody C7 scFv H-S54A (rabbit) (heavy, as listed by the source, chain 1 of 2): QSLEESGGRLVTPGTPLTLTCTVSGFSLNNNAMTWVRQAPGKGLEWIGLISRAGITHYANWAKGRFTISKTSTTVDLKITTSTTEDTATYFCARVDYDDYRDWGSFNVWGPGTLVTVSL
Sequence of rabbit antibody C7 scFv H-S52A (rabbit) (heavy, as listed by the source, chain 1 of 2): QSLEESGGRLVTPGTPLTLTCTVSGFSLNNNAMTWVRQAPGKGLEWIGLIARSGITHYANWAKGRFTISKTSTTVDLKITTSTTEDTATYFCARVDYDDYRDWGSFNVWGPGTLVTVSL
Sequence of rabbit antibody A4 scFv H-S53A (rabbit) (heavy, as listed by the source, chain 1 of 2): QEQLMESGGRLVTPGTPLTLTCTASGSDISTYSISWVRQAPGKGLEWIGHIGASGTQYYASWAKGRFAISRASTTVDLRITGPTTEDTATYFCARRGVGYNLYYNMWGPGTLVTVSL

B1: phosphorylated Akt peptide (peptide)
peptide: RPHFPQF[pS]YSAS
As to B1, the Kd in test [1] worked out at 95.3 nM; in test [2] it was 3.34 nM; in test [3], 664 nM; in test [4] it was 3.55 nM; in test [5], 6.95 nM; in test [6] it was 4 nM. Besides, the Kd in test [7] is 26.9 nM. For the same molecule, the dH was -13.3 kcal/mol in test [1]; -24.4 kcal/mol in test [2]; -11.1 kcal/mol in test [3]; -24.9 kcal/mol in test [4]; -23.5 kcal/mol in test [5]; -23 kcal/mol in test [6]. In test [7], the dH is -14.4 kcal/mol.
